This data set concerns Escherichia coli TOP10. Nature of the data set: shrunken log2 fold change of peptide-encoding DNA abundance (4.5 h post-induction vs induction); higher = less antimicrobial activity (less host growth inhibition). As to conditions: time post-induction: 4.5 h; library: site-saturation at positions 5, 18, 19, 20.
Take RRIRQRPPRLPRPRPRPHCPPRP: the “shrunken log2 fold change” value was -0.0268. To RRIRDRPPRLPRPRPRPPLQPRP belongs 0.414; to RRIRNRPPRLPRPRPRPDYSPRP, -0.0548; to RRIRLRPPRLPRPRPRPTMPPRP, -0.0783. Next, RRIRMRPPRLPRPRPRPMINPRP: -0.00763; RRIRQRPPRLPRPRPRPSQFPRP: 0.00374; RRIRARPPRLPRPRPRPMVVPRP: -0.0787.

On to RRIRGRPPRLPRPRPRPPTSPRP, for which the “shrunken log2 fold change” value came to 0.879. As for RRIRWRPPRLPRPRPRPEFWPRP, the “shrunken log2 fold change” value stood at 0.6.

With RRIRWRPPRLPRPRPRPLPTPRP, the “shrunken log2 fold change” value came out at 0.463. RRIRLRPPRLPRPRPRPKCRPRP: the “shrunken log2 fold change” value was found to be 0.147. For RRIRYRPPRLPRPRPRPKKPPRP, the “shrunken log2 fold change” value was 0.00704. Next, RRIRLRPPRLPRPRPRPKIKPRP: -0.36; RRIRHRPPRLPRPRPRPQPSPRP: 0.111; RRIRWRPPRLPRPRPRPNWIPRP: 0.149. In the case of RRIRTRPPRLPRPRPRPLCAPRP, the “shrunken log2 fold change” value stood at 0.0615. On to RRIRMRPPRLPRPRPRPCCDPRP, for which the “shrunken log2 fold change” value stood at 0.393. In the case of RRIRGRPPRLPRPRPRPHWMPRP, the “shrunken log2 fold change” value is 0.0496. To RRIRWRPPRLPRPRPRPQNEPRP belongs -0.18; to RRIRVRPPRLPRPRPRPLVEPRP, -0.125. Next, RRIRQRPPRLPRPRPRPYMAPRP: -0.274.

RRIRWRPPRLPRPRPRPLTCPRP: the “shrunken log2 fold change” value turned out to be 0.0568.

Turning to RRIRRRPPRLPRPRPRPQFFPRP, the “shrunken log2 fold change” value is -0.259. Turning to RRIRVRPPRLPRPRPRPMYQPRP, the “shrunken log2 fold change” value was -0.342. To RRIRMRPPRLPRPRPRPCIPPRP belongs -0.159; to RRIRYRPPRLPRPRPRPFARPRP, -0.084; to RRIRRRPPRLPRPRPRPWWSPRP, 0.105. In the case of RRIRDRPPRLPRPRPRPHTIPRP, the “shrunken log2 fold change” value is -0.351. Next, RRIRPRPPRLPRPRPRPDIGPRP: -0.0448.

RRIRVRPPRLPRPRPRPKKAPRP: the “shrunken log2 fold change” value came out at 0.157. Next, RRIRIRPPRLPRPRPRPWRPPRP: 0.145; RRIRKRPPRLPRPRPRPYNWPRP: -0.155. Turning to RRIRFRPPRLPRPRPRPCVEPRP, the “shrunken log2 fold change” value was -0.267. Next, RRIRDRPPRLPRPRPRPKNRPRP: 0.0678. To RRIRGRPPRLPRPRPRPAVYPRP belongs 0.742; to RRIRMRPPRLPRPRPRPVDTPRP, 0.361. As for RRIRHRPPRLPRPRPRPIEWPRP, the “shrunken log2 fold change” value is -0.02. On to RRIRFRPPRLPRPRPRPTLFPRP, for which the “shrunken log2 fold change” value amounted to 0.243.

Take RRIRKRPPRLPRPRPRPWNYPRP: the “shrunken log2 fold change” value was -0.154. To RRIRQRPPRLPRPRPRPPQEPRP belongs -0.00749. Consider RRIRVRPPRLPRPRPRPIYDPRP, for which the “shrunken log2 fold change” value was -0.576. Next, RRIRWRPPRLPRPRPRPVWQPRP: 0.301; RRIRWRPPRLPRPRPRPCDYPRP: -0.0182.

With RRIRIRPPRLPRPRPRPKPYPRP, the “shrunken log2 fold change” value was -0.24. Next, RRIRSRPPRLPRPRPRPMSLPRP: 0.226; RRIRQRPPRLPRPRPRPSMAPRP: -0.135; RRIRVRPPRLPRPRPRPWFDPRP: -0.439. Next, RRIRHRPPRLPRPRPRPWNIPRP: -0.246; RRIRDRPPRLPRPRPRPCRMPRP: 0.0112; RRIRRRPPRLPRPRPRPMESPRP: -0.00992. To RRIRNRPPRLPRPRPRPGMHPRP belongs -0.015; to RRIRSRPPRLPRPRPRPWVQPRP, 0.127; to RRIRRRPPRLPRPRPRPPFMPRP, 0.22. In the case of RRIRKRPPRLPRPRPRPPLEPRP, the “shrunken log2 fold change” value is 0.456. As for RRIRSRPPRLPRPRPRPMENPRP, the “shrunken log2 fold change” value was determined as 0.0424.

For the sequence RRIRGRPPRLPRPRPRPYKWPRP, the “shrunken log2 fold change” value was -0.0702. For the sequence RRIRTRPPRLPRPRPRPGRYPRP, the “shrunken log2 fold change” value was 0.123.

Take RRIRWRPPRLPRPRPRPQFWPRP: the “shrunken log2 fold change” value was determined as 0.105. Next, RRIRHRPPRLPRPRPRPCMEPRP: -0.0962. As to RRIRARPPRLPRPRPRPRQCPRP, the “shrunken log2 fold change” value stood at 0.353.

RRIRIRPPRLPRPRPRPIILPRP: the “shrunken log2 fold change” value is -0.646. Turning to RRIRQRPPRLPRPRPRPMYHPRP, the “shrunken log2 fold change” value was -0.477. To RRIRARPPRLPRPRPRPRLSPRP belongs 0.358; to RRIRNRPPRLPRPRPRPYWEPRP, -0.293. As for RRIRARPPRLPRPRPRPLIEPRP, the “shrunken log2 fold change” value was 0.388.

In the case of RRIRKRPPRLPRPRPRPVTIPRP, the “shrunken log2 fold change” value is 0.0361.

On to RRIRGRPPRLPRPRPRPPRYPRP, for which the “shrunken log2 fold change” value stood at 0.701. For RRIRQRPPRLPRPRPRPFGEPRP, the “shrunken log2 fold change” value stood at 0.287. To RRIRIRPPRLPRPRPRPFCVPRP belongs -0.713.

For the sequence RRIRDRPPRLPRPRPRPKPLPRP, the “shrunken log2 fold change” value came out at 0.101. On to RRIRKRPPRLPRPRPRPLEIPRP, for which the “shrunken log2 fold change” value was determined as 0.281. To RRIRPRPPRLPRPRPRPQPYPRP belongs -0.177. Regarding RRIRRRPPRLPRPRPRPELDPRP, the “shrunken log2 fold change” value is 0.122. On to RRIRDRPPRLPRPRPRPMMNPRP, for which the “shrunken log2 fold change” value is -0.00862. Regarding RRIRWRPPRLPRPRPRPRMAPRP, the “shrunken log2 fold change” value came to 0.614. For the sequence RRIRPRPPRLPRPRPRPAQFPRP, the “shrunken log2 fold change” value is 0.272. Next, RRIRSRPPRLPRPRPRPKAYPRP: -0.0451. With RRIRARPPRLPRPRPRPRPRPRP, the “shrunken log2 fold change” value turned out to be 1.99.

In the case of RRIRDRPPRLPRPRPRPMARPRP, the “shrunken log2 fold change” value came out at 0.0954. To RRIRARPPRLPRPRPRPHRLPRP belongs -0.0138; to RRIRQRPPRLPRPRPRPCQYPRP, -0.00191. Next, RRIRFRPPRLPRPRPRPQLEPRP: 0.118; RRIRKRPPRLPRPRPRPHQGPRP: 0.0968. To RRIRIRPPRLPRPRPRPYMFPRP belongs -0.892; to RRIRQRPPRLPRPRPRPTNQPRP, 0.0625; to RRIRLRPPRLPRPRPRPPWRPRP, 0.445. RRIRIRPPRLPRPRPRPVVNPRP: the “shrunken log2 fold change” value is -0.356. RRIRWRPPRLPRPRPRPWCWPRP: the “shrunken log2 fold change” value was determined as 0.304. Next, RRIRARPPRLPRPRPRPLFIPRP: -0.331; RRIRTRPPRLPRPRPRPITFPRP: -0.108; RRIRCRPPRLPRPRPRPEQAPRP: 0.219. For the sequence RRIRGRPPRLPRPRPRPLWTPRP, the “shrunken log2 fold change” value was determined as 0.472. RRIRWRPPRLPRPRPRPGKHPRP: the “shrunken log2 fold change” value was determined as 0.0375.

Turning to RRIRPRPPRLPRPRPRPTFYPRP, the “shrunken log2 fold change” value was -0.235. Take RRIRERPPRLPRPRPRPAVCPRP: the “shrunken log2 fold change” value was 0.086.

On to RRIRIRPPRLPRPRPRPFVAPRP, for which the “shrunken log2 fold change” value was -0.158.

Take RRIRWRPPRLPRPRPRPPFTPRP: the “shrunken log2 fold change” value was determined as 0.21. On to RRIRVRPPRLPRPRPRPPYPPRP, for which the “shrunken log2 fold change” value amounted to 0.0226.

As for RRIRARPPRLPRPRPRPSNNPRP, the “shrunken log2 fold change” value is -0.376. To RRIRTRPPRLPRPRPRPYNDPRP belongs -0.00735; to RRIRCRPPRLPRPRPRPGHDPRP, -0.00827; to RRIRERPPRLPRPRPRPMSHPRP, -0.741. For RRIRNRPPRLPRPRPRPVPEPRP, the “shrunken log2 fold change” value was 0.61. Regarding RRIRFRPPRLPRPRPRPEMIPRP, the “shrunken log2 fold change” value is 0.169. For the sequence RRIRIRPPRLPRPRPRPLQIPRP, the “shrunken log2 fold change” value is -0.165. On to RRIRFRPPRLPRPRPRPHVAPRP, for which the “shrunken log2 fold change” value came out at 0.119. Next, RRIRWRPPRLPRPRPRPFLGPRP: -0.552; RRIRARPPRLPRPRPRPPMAPRP: 0.484.

For the sequence RRIRQRPPRLPRPRPRPVEQPRP, the “shrunken log2 fold change” value was 0.0359. To RRIRIRPPRLPRPRPRPQKAPRP belongs 0.0173; to RRIRERPPRLPRPRPRPSNNPRP, -0.973. Consider RRIRKRPPRLPRPRPRPDYQPRP, for which the “shrunken log2 fold change” value was -0.0353.

With RRIRPRPPRLPRPRPRPICTPRP, the “shrunken log2 fold change” value worked out at 0.0424.

For RRIRGRPPRLPRPRPRPHPEPRP, the “shrunken log2 fold change” value is 0.513. As for RRIRLRPPRLPRPRPRPPWFPRP, the “shrunken log2 fold change” value is 0.165. Next, RRIRCRPPRLPRPRPRPINYPRP: -0.271; RRIRWRPPRLPRPRPRPVWRPRP: 0.488. Next, RRIRDRPPRLPRPRPRPDMSPRP: -0.0165. Next, RRIRMRPPRLPRPRPRPYLCPRP: -0.165. Consider RRIRRRPPRLPRPRPRPPTAPRP, for which the “shrunken log2 fold change” value amounted to 0.569.

For RRIRARPPRLPRPRPRPIWDPRP, the “shrunken log2 fold change” value was found to be 0.264. To RRIRRRPPRLPRPRPRPSGVPRP belongs -0.181. Next, RRIRVRPPRLPRPRPRPVIWPRP: 0.286; RRIRARPPRLPRPRPRPNKQPRP: 0.165; RRIRNRPPRLPRPRPRPLKIPRP: -0.233.

Values taken from the supplement of paper PMC9112550, “Optimization of the antimicrobial peptide Bac7 by deep mutational scanning” (BMC Biology, 2022).
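Also: peptides expressed intracellularly from a pBAD plasmid library in pooled LB shake-flask culture, induced with 0.3% L-arabinose, DNA abundance read by NGS, three biological replicates, DESeq2 with apeglm shrinkage.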
